We go through four molecules from WO2019131769A1 (dated 2019).

Numbering of substitutions follows the chain as printed. Ends that are not written are not given here.

The term Kd denotes the concentration at which binding is half-saturated. Higher therefore signals lower affinity.

In test [1] the target is T1, human PAD4 (Peptidylarginine deiminase 4) (human, UniProt Q9UM07 1-663).
T1 construct: also called full-length recombinant human PAD4 protein; active PAD4
The test can be described thus: SPR (Biacore T200), antibody captured on rabbit anti-mouse polyclonal antibody on CM5 chip, human PAD4 as analyte. (In general: In SPR one partner is held on a chip, and binding of the other changes the refractive index at the surface.)

Test [2] deals with T1, human PAD4 (Peptidylarginine deiminase …). The test can be described thus: cell-based or functional assay.
The target in test [3] is T2, BSA-modified peptide antigen FFTYHIRHGEVHC (SEQ ID NO: 1) (human, also: BSA carrier conjugate).
T2 construct: also called peptide corresponding to positions 633-644 of PAD4
T2 peptide: FFTYHIRHGEVHC
As to the kind of experiment: ELISA, culture supernatant of CHO cells on immobilised BSA-modified peptide.

T1 sequence (Q9UM07 whole entry): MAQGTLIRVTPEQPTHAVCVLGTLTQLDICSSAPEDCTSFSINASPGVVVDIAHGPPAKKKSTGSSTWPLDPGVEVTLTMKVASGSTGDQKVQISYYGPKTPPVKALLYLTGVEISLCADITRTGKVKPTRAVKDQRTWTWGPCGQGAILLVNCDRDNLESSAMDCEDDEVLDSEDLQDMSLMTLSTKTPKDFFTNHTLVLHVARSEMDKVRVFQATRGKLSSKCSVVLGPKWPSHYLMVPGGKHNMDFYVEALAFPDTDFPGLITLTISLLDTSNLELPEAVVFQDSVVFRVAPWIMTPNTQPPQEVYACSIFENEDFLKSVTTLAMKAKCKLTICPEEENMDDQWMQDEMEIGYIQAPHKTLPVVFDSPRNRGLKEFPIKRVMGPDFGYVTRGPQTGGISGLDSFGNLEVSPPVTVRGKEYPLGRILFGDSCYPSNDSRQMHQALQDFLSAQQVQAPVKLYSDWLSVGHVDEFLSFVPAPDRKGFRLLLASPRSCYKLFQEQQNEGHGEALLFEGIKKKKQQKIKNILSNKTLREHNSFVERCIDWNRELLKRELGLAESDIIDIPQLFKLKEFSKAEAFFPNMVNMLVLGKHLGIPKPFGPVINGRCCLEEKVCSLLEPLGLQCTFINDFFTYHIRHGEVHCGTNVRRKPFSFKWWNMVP

B1: P1 (antibody, V domains shown)
VH: AVTLDESGGGLQTPGGGLSLICKASGFHMRSYAMNWVRQAPGKGLEFVAGIDNSGRYRNYGAAVKGRATISRDNGQSTVRLQLNNLRAEDTGIYYCAKNFDVGGDGCDWSSGCIDAWGHGTEVIVS
VL: ASTQPSSVSANPGETVKITCSGGSSTYYGWYQQKSPGSAPVTVIYQNTKRPSGLSSRFSGSKSGSTATLTITGVQAEDEAVYFCGGYDTRTYAGIFGAGTTLTVL
notes: Chicken variable regions recombined into mouse chimeric antibody (IgG1) expression vectors; also called anti-PAD4 antibody P1; P1 etc
B1: the Kd in test [1] turned out to be 73 nM. The “inhibition rate of citrullinating activity of active PAD4 (BAEE substrate, colorimetric)” value (“inhibition rate” for short) in test [2] amounted to 63%.

B2: P3 (antibody, V domains shown)
VH: B1 VH with F27S, H28T, M29I, R58T, F100V, G103A, D105Y, A116T
VL: B1 VL with S6A, Q46E, K49N, G53D, L54I, S55P, E77D, T89R, R90T, T91N
notes: Chicken variable regions recombined into mouse chimeric antibody (IgG1) expression vectors; also called anti-PAD4 antibody P3; P1 etc
B2 had a Kd in test [1] of 24 nM. Moreover, the “inhibition rate” value in test [2] is 80%. In addition, in test [3], the binding result was “binds”.

B3: P4 (antibody, V domains shown)
VH: B1 VH with H28S, S54T, R58T, N59G, A62S, I93T, F100V, G103A, D105S, I124T
VL: B1 VL
notes: Chicken variable regions recombined into mouse chimeric antibody (IgG1) expression vectors; also called anti-PAD4 antibody P4; P1 etc
In turn, B3 displayed a Kd in test [1] of 15 nM. Besides, the “inhibition rate” value in test [2] is 82%.

B4: P2 (antibody, V domains shown)
VH: B1 VH with G17A, I21V
VL: B1 VL with S6A, K49N, G53D, L54I, S55P, T89R, R90S, T91N
notes: Chicken variable regions recombined into mouse chimeric antibody (IgG1) expression vectors; also called anti-PAD4 antibody P2; P1 etc
Molecule B4 came in with a Kd in test [1] of 31 nM. Besides, the “inhibition rate” value in test [2] worked out at 62%. In test [3], the binding result is “binds”.
